In patent US20060036083:

Target: human neutrophil peptide (HNP)-1
Sequence (chain, as listed by the source): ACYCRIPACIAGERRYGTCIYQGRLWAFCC

B1: recombinant ADP-ribosyltransferase (ART)-1 with a FLAG tag, cloned from a rabbit muscle cDNA library (protein)
chain: QSHLVTRRDLFSQETPLDMAPASFDDQYVGCAAAMTAALPHLNLTEFQVNKVYADGWALASSQWRERSAWGPEWGLSTTRLPPPPAGFRDEHGVALLAYTANSPLHKEFNAAVRQAGRSRAHYLQHFSFKTLHFLLTEALQLLGRDQRMPRCRQVFRGVHGLRFRPAGPGTTVRLGGFASASLKNVAAQQFGEDTFFGIWTCLGVPIQGYSFFPGEEEVLIPPFETFQVINASRPAQGPARIYLKALGKRSSYNCEYIKEMQCKSRPCHLDNS
  ADP-ribosylation of HNP-1 by ART-1 with NAD+ (RP-HPLC, MALDI mass spectrometry): peptides with a mass of 3,983 daltons (retention time 46.5 minutes), consistent with mono-ADP-ribosyl-HNP (calculated mass equivalent to 3,983 daltons), were identified
